± gives the uncertainty stated by the source.
B1: POU domain, class 3, transcription factor 3, residues 408 to 463; numbered along this chain, P20264 (parent)
chain: KKRTSIEVSVKGALESHFLKCPKPSAQEITNLADSLQLEKEVVRVWFCNRRQKEKR

Variants of: B1
Test: abundance fitness (aPCA) (normalised: wild type 0, dead -1); higher = more abundant; growth selection in yeast, the domain comes from the species named
Conditions: Homo sapiens

Variant | abundance fitness
KKRTSIEVSVKGALESHFLKCPKPSAQEITNLADSLQLEKEVVRVWFRNRRQKEKR [C48R] | 0.035 ± 0.062
KKRTSIEVSVKGALESHFLKCPKPSAQEITNLADSLQLEKEVVRVWFTNRRQKEKR [C48T] | 0.032 ± 0.1
KKRTSIEVSVKGALESHFLKCPKPSAQEITNLADSLQLEKEVVRVWFVNRRQKEKR [C48V] | 0.068 ± 0.099
KKRTSIEVSVKGALESHFLKCPKPSAQEITNLADSLQLEKEVVRVWFYNRRQKEKR [C48Y] | 0.068 ± 0.1
KKRTSIEVSVKGALESHFLKCPKPSAQEITNLADSLQLEKEVVRVWFWNRRQKEKR [C48W] | -0.113 ± 0.083
KKRTSIEVSVKGALESHFLKCPKPSAQEITNLADSLQLEKEVVRVWFSNRRQKEKR [C48S] | 0.045 ± 0.07
KKRTSIEVSVKGALESHFLKCPKPSAQEITNLADSLQLEKEVVRVWFCNRRQQEKR [K53Q] | -0.041 ± 0.1
KKRTSIEVSVKGALESHFLKCPKPSAQEITNLADSLQLEKEVVRVWFCNRRQDEKR [K53D] | 0.196 ± 0.22
KKRTSIEVSVKGALESHFLKCPKPSAQEITNLADSLQLEKEVVRVWFCNRRQAEKR [K53A] | 0.076 ± 0.1
KKRTSIEVSVKGALESHFLKCPKPSAQEITNLADSLQLEKEVVRVWFCNRRQYEKR [K53Y] | -0.288 ± 0.18
KKRTSIEVSVKGALESHFLKCPKPSAQEITNLADSLQLEKEVVRVWFCNRRQCEKR [K53C] | -0.152 ± 0.11
KKRTSIEVSVKGALESHFLKCPKPSAQEITNLADSLQLEKEVVRVWFCNRRQNEKR [K53N] | -0.248 ± 0.24
KKRTSIEVSVKGALESHFLKCPKPSAQEITNLADSLQLEKEVVRVWFCNRRQVEKR [K53V] | -0.03 ± 0.087
KKRTSIEVSVKGALESHFLKCPKPSAQEITNLADSLQLEKEVVRVWFCNRRQPEKR [K53P] | -0.6 ± 0.13
KKRTSIEVSVKGALESHFLKCPKPSAQEITNLADSLQLEKEVVRVWFCNRRQMEKR [K53M] | -0.167 ± 0.11
KKRTSIEVSVKGALESHFLKCPKPSAQEITNLADSLQLEKEVVRVWFCNRRQHEKR [K53H] | -0.194 ± 0.14
KKRTSIEVSVKGALESHFLKCPKPSAQEITNLADSLQLEKEVVRVWFCNRRQIEKR [K53I] | -0.121 ± 0.13
KKRTSIEVSVKGALESHFLKCPKPSAQEITNLADSLQLEKEVVRVWFCNRRQGEKR [K53G] | -0.212 ± 0.072
KKRTSIEVSVKGALESHFLKCPKPSAQEITNLADSLQLEKEVVRVWFCNRRQTEKR [K53T] | -0.067 ± 0.12
KKRTSIEVSVKGALESHFLKCPKPSAQEITNLADSLQLEKEVVRVWFCNRRQLEKR [K53L] | 0.032 ± 0.08
KKRTSIEVSVKGALESHFLKCPKPSAQEITNLADSLQLEKEVVRVWFCNRRQREKR [K53R] | -0.044 ± 0.064
KKRTSIEVSVKGALESHFLKCPKPSAQEITNLADSLQLEKEVVRVWFCNRRQFEKR [K53F] | -0.156 ± 0.15
KKRTSIEVSVKGALESHFLKCPKPSAQEITNLADSLQLEKEVVRVWFCNRRQSEKR [K53S] | 0.068 ± 0.082
KKRTSIEVSVKGALESHFLKCPKPSAQEITNLADSLQLEKEVVRVWFCNRRQEEKR [K53E] | -0.013 ± 0.12

Variant | abundance fitness
KKRTSIEVSVKGALESHFLKCPKPSAQEITNLADSLQLEKEVVRVWFCDRRQKEKR [N49D] | -0.177 ± 0.28
KKRTSIEVSVKGALESHFLKCPKPSAQEITNLADSLQLEKEVVRVWFCKRRQKEKR [N49K] | -0.276 ± 0.15
KKRTSIEVSVKGALESHFLKCPKPSAQEITNLADSLQLEKEVVRVWFCWRRQKEKR [N49W] | -0.295 ± 0.088
KKRTSIEVSVKGALESHFLKCPKPSAQEITNLADSLQLEKEVVRVWFCLRRQKEKR [N49L] | -0.357 ± 0.083
KKRTSIEVSVKGALESHFLKCPKPSAQEITNLADSLQLEKEVVRVWFCGRRQKEKR [N49G] | -0.279 ± 0.07
KKRTSIEVSVKGALESHFLKCPKPSAQEITNLADSLQLEKEVVRVWFCCRRQKEKR [N49C] | -0.202 ± 0.11
KKRTSIEVSVKGALESHFLKCPKPSAQEITNLADSLQLEKEVVRVWFCPRRQKEKR [N49P] | -0.881 ± 0.2
KKRTSIEVSVKGALESHFLKCPKPSAQEITNLADSLQLEKEVVRVWFCHRRQKEKR [N49H] | -0.034 ± 0.15
KKRTSIEVSVKGALESHFLKCPKPSAQEITNLADSLQLEKEVVRVWFCSRRQKEKR [N49S] | -0.098 ± 0.079
KKRTSIEVSVKGALESHFLKCPKPSAQEITNLADSLQLEKEVVRVWFCIRRQKEKR [N49I] | -0.151 ± 0.14
KKRTSIEVSVKGALESHFLKCPKPSAQEITNLADSLQLEKEVVRVWFCARRQKEKR [N49A] | -0.142 ± 0.094
KKRTSIEVSVKGALESHFLKCPKPSAQEITNLADSLQLEKEVVRVWFCVRRQKEKR [N49V] | -0.152 ± 0.1
KKRTSIEVSVKGALESHFLKCPKPSAQEITNLADSLQLEKEVVRVWFCYRRQKEKR [N49Y] | -0.381 ± 0.2
KKRTSIEVSVKGALESHFLKCPKPSAQEITNLADSLQLEKEVVRVWFCMRRQKEKR [N49M] | -0.274 ± 0.11
KKRTSIEVSVKGALESHFLKCPKPSAQEITNLADSLQLEKEVVRVWFCTRRQKEKR [N49T] | -0.097 ± 0.12
KKRTSIEVSVKGALESHFLKCPKPSAQEITNLADSLQLEKEVVRVWFCERRQKEKR [N49E] | 0.041 ± 0.13
KKRTSIEVSVKGALESHFLKCPKPSAQEITNLADSLQLEKEVVRVWFCQRRQKEKR [N49Q] | 0.028 ± 0.13
KKRTSIEVSVKGALESHFLKCPKPSAQEITNLADSLQLEKEVVRVWFCRRRQKEKR [N49R] | -0.278 ± 0.07
KKRTSIEVSVKGALESHFLKCPKPSAQEITNLADSLQLEKEVVRVWFCNRVQKEKR [R51V] | -0.222 ± 0.09
KKRTSIEVSVKGALESHFLKCPKPSAQEITNLADSLQLEKEVVRVWFCNRYQKEKR [R51Y] | 0.243 ± 0.48
KKRTSIEVSVKGALESHFLKCPKPSAQEITNLADSLQLEKEVVRVWFCNRMQKEKR [R51M] | 0.031 ± 0.12
KKRTSIEVSVKGALESHFLKCPKPSAQEITNLADSLQLEKEVVRVWFCNRLQKEKR [R51L] | -0.005 ± 0.079
KKRTSIEVSVKGALESHFLKCPKPSAQEITNLADSLQLEKEVVRVWFCNRCQKEKR [R51C] | -0.345 ± 0.12

— the Human Domainome abundance scans (Beltran et al. 2025)
